This is an account of results in patent publication US10808024B2, “Antibodies against immunocomplexes comprising cyanobacterial cyclic peptide hepatotoxins” (priority 2015, dated 2020).

The test system of this assay is immunocomplexes of CCPH variants and anti-Adda mAb. Nature of the assay: Screening and cross-reactivity studies of anti-IC scFv-AP binders, specificity class. The format is binding.

Positions count from the first letter of the chain named. Entries after “also recorded” stand apart in the source; their conditions may differ.

B1: SA56E7: variant-specific anti-IC antibody, MC-LR (antibody, V domains shown)
VH: EVQLLESGGGLVQPGGSLRLSCAASGFTFSRYYMHWVRQAPGKGLEWVSYIWPVDGETDYADSVKGRFTISRDNSKNTLYLQMNSLRAEDTAVYYCARYVYGNSVGRVFDYWGQGTLVTVSS
VL: EIVLTQSPGTLSLSPGERATLSCRASQSVSSSNLAWYQQKPGQAPRLLIYGASSRATGVPDRFSGSGSGTDFTLTISRLEPEDFAVYYCQQSYSYPWTFGQGTKVEIKRT
modifications: Clone SA56E7; DOMAIN (31)..(35) CDR1; DOMAIN (50)..(66) CDR2; DOMAIN (99)..(111) CDR3; DOMAIN (24)..(35) CDR1; DOMAIN (51)..(57) CDR2; DOMAIN (90)..(98) CDR3
Turning to B1, the “Specificity of anti-IC antibody (CCPH immunocomplexes recognized)” value (“Specificity of anti-IC antibody” for short) is recorded as “recognize immunocomplexes comprising MC-LR”.

B2: SA34G1: variant-specific anti-IC antibody, Nod-R (antibody, V domains shown)
VH: EVQLLESGGGLVQPGGSLRLSCAASGFTFSDYWMHWVRQAPGKGLEWVSEIIPYSGYTNYADSVKGRFTISRDNSKNTLYLQMNSLRAEDTAVYYCARETWGYPSFDYWGQGTLVTVSS
VL: B1 VL with Y93S, Y95T
modifications: Clone SA34G1; DOMAIN (31)..(35) CDR1; DOMAIN (50)..(66) CDR2; DOMAIN (99)..(108) CDR3; DOMAIN (24)..(35) CDR1; DOMAIN (51)..(57) CDR2; DOMAIN (90)..(98) CDR3
On to B2, for which the “Specificity of anti-IC antibody” value is given as “recognize immunocomplexes comprising Nod-R”.

B3: SA44E11: anti-IC antibody recognizing immunocomplexes comprising MC-RR (antibody, V domains shown)
VH: EVQLLESGGGLVQPGGSLRLSCAASGFTFSDYYMHWVRQAPGKGLEWVSEISTYNGYTDYADSVKGRFTISRDNSKNTLYLQMNSLRAEDTAVYYCARGGEPGDDWGQGTLVTVSS
VL: B1 VL with N33A, S92Y, Y93S, Y95L
modifications: Clone SA44E11; DOMAIN (31)..(35) CDR1; DOMAIN (50)..(66) CDR2; DOMAIN (99)..(105) CDR3; DOMAIN (24)..(35) CDR1; DOMAIN (51)..(57) CDR2; DOMAIN (90)..(98) CDR3
Consider B3, for which the “Specificity of anti-IC antibody” value was “recognize immunocomplexes comprising MC-RR”.

B4: SA32F1: variant-specific anti-IC antibody, Nod-R (antibody, V domains shown)
VH: EVQLLESGGGLVQPGGSLRLSCAASGFTFSNYYMHWVRQAPGKGFEWVSSIITNGGETDYADSVKGRFTISRDNSKNTLYLQMNSLRAEDTAVYYCARLPVTRPYYAVFDYWGQGTLVTVSS
VL: B1 VL with N33A, Y93S
modifications: Clone SA32F1; DOMAIN (31)..(35) CDR1; DOMAIN (50)..(66) CDR2; DOMAIN (99)..(110) CDR3; DOMAIN (24)..(35) CDR1; DOMAIN (51)..(57) CDR2; DOMAIN (90)..(98) CDR3
B4: the “Specificity of anti-IC antibody” value is reported as “recognize immunocomplexes comprising Nod-R”.

B5: SA51D12: variant-specific anti-IC antibody, MC-LR (antibody, V domains shown)
VH: EVQLLESGGGLVQPGGSLRLSCAASGFTFSSDVMHWVRQAPGKGLEWVSVISGYDGYTRYADSVKGRFTISRDNSKNTLYLQMNSLRAEDTAVYYCARGVPYLYGAYSFDYWGQGTLVTVSS
VL: EIVLTQSPGTLSLSPGERATLSCRASQSVSSSNLAWYQQKPGQAPRLLIYGASSRATGVPDRFSGSGSGTDFTLTISRLEPEDFAVYYCQQSSTPWTFGQGTKVEIKRT
modifications: Clone SA51D12; DOMAIN (31)..(35) CDR1; DOMAIN (50)..(66) CDR2; DOMAIN (99)..(111) CDR3; DOMAIN (24)..(35) CDR1; DOMAIN (51)..(57) CDR2; DOMAIN (90)..(98) CDR3
Regarding B5, the “Specificity of anti-IC antibody” value is “recognize immunocomplexes comprising MC-LR; also recorded: MC-LR and MC-LZ specific”.
